# T1: FcγRIIb extracellular domain with C-terminal His tag (human, UniProt P31994 43-217)
# T1 construct: extracellular domain; Soluble receptor expressed in FreeStyle293 cells and used as analyte in Biacore; also called FcgRIIb; 2b; not shown: His tag at the C terminus
# T1 sequence (looked up): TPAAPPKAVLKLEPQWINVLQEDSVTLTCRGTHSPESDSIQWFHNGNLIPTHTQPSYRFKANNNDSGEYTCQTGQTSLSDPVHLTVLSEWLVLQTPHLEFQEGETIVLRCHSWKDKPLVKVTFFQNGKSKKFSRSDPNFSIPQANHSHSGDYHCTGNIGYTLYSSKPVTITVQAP
# B1: GpH7-A5/GpH7-B3 variant I336_02A/GpL16-k0 (antibody, human IgG1, kappa)
# heavy 1: not shown
# heavy 2: not shown
# light: DIVMTQSPLSLPVTPGEPASISCQASESLVHSNRNTYLHWYLQKPGQSPQLLIYKVSNRFSGVPDRFSGSGSGTDFTLKISRVEAEDVGVYYCSQNTHVPPTFGQGTKVEIERTVAAPSVFIFPPSDEQLKSGTASVVCLLNNFYPREAKVQWKVDNALQSGNSQESVTEQDSKDSTYSLSSTLTLSKADYEKHKVYACEVTHQGLSSPVTKSFNRGEC
# notes: Heterodimerized anti-glypican-3 IgG1 (He Ab); The mutation is in the GpH7-B3 chain only; also called He Ab with I336A in GpH7-B3
# B2: GpH7-A5/GpH7-B3 variant I336_14T/GpL16-k0 (antibody, human IgG1, kappa)
# heavy 1: not shown
# heavy 2: not shown
# light: B1 light
# notes: Heterodimerized anti-glypican-3 IgG1 (He Ab); The mutation is in the GpH7-B3 chain only; also called He Ab with I336T in GpH7-B3
# B3: GpH7-A5/GpH7-B3 variant I336_10E/GpL16-k0 (antibody, human IgG1, kappa)
# heavy 1: not shown
# heavy 2: not shown
# light: B1 light
# notes: Heterodimerized anti-glypican-3 IgG1 (He Ab); The mutation is in the GpH7-B3 chain only; also called He Ab with I336E in GpH7-B3
# B4: GpH7-A5/GpH7-B3 variant I336_15Y/GpL16-k0 (antibody, human IgG1, kappa)
# heavy 1: not shown
# heavy 2: not shown
# light: B1 light
# notes: Heterodimerized anti-glypican-3 IgG1 (He Ab); The mutation is in the GpH7-B3 chain only; also called He Ab with I336Y in GpH7-B3
# B5: GpH7-A5/GpH7-B3 variant I336_13S/GpL16-k0 (antibody, human IgG1, kappa)
# heavy 1: not shown
# heavy 2: not shown
# light: B1 light
# notes: Heterodimerized anti-glypican-3 IgG1 (He Ab); The mutation is in the GpH7-B3 chain only; also called He Ab with I336S in GpH7-B3
# B6: GpH7-A5/GpH7-B3 variant I336_03V/GpL16-k0 (antibody, human IgG1, kappa)
# heavy 1: not shown
# heavy 2: not shown
# light: B1 light
# notes: Heterodimerized anti-glypican-3 IgG1 (He Ab); The mutation is in the GpH7-B3 chain only; also called He Ab with I336V in GpH7-B3
# B7: GpH7-B3 variant S324_01G/GpL16-k0 (Ho Ab) (antibody, human IgG1, kappa)
# heavy: not shown
# light: B1 light
# notes: Homodimerized anti-glypican-3 antibody; the alteration stands in both H chains
# B8: GpH7-B3 variant Y296_20W/GpL16-k0 (Ho Ab) (antibody, human IgG1, kappa)
# heavy: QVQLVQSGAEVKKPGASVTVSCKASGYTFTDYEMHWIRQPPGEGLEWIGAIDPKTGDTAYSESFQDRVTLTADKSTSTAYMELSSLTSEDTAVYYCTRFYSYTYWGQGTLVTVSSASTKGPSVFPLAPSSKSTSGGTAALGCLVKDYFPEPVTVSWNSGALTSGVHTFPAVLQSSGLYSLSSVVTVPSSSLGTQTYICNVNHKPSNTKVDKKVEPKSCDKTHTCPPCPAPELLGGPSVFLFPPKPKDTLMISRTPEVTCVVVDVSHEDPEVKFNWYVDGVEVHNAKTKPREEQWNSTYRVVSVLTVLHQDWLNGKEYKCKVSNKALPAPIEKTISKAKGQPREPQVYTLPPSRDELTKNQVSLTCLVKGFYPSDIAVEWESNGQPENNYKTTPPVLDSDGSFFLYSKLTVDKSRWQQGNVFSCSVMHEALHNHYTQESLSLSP
# light: B1 light
# notes: as for B7
# B9: GpH7-B3 variant S337_16H/GpL16-k0 (Ho Ab) (antibody, human IgG1, kappa)
# heavy: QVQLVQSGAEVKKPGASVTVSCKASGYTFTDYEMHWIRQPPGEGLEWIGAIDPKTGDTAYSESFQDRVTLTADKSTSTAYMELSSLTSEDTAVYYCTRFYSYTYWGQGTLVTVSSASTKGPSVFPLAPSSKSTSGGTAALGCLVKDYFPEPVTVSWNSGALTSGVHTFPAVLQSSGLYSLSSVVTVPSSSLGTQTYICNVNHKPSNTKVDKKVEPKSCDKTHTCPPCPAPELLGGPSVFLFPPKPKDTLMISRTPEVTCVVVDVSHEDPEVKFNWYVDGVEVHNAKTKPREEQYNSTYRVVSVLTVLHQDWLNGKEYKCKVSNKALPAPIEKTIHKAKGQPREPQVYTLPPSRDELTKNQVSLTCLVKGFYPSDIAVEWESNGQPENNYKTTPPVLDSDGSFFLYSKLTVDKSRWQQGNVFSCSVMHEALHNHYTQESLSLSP
# light: B1 light
# notes: as for B7
# B10: GpH7-B3 variant Y300_08L/GpL16-k0 (Ho Ab) (antibody, human IgG1, kappa)
# heavy: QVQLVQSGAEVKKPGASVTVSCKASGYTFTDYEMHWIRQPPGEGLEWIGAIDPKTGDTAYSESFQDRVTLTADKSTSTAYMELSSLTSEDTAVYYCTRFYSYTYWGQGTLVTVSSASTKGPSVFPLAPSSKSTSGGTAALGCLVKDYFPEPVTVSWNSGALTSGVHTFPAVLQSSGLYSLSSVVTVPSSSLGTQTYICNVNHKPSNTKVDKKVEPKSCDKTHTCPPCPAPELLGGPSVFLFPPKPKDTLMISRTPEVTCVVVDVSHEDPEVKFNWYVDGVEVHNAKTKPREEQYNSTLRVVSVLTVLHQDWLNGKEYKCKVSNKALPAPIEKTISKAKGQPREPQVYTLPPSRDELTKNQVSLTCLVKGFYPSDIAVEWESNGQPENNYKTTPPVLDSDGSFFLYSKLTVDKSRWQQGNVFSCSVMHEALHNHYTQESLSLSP
# light: B1 light
# notes: as for B7
# B11: GpH7-B3 variant S324_09D/GpL16-k0 (Ho Ab) (antibody, human IgG1, kappa)
# heavy: not shown
# light: B1 light
# notes: as for B7
# B12: GpH7-B3 variant T335_08L/GpL16-k0 (Ho Ab) (antibody, human IgG1, kappa)
# heavy: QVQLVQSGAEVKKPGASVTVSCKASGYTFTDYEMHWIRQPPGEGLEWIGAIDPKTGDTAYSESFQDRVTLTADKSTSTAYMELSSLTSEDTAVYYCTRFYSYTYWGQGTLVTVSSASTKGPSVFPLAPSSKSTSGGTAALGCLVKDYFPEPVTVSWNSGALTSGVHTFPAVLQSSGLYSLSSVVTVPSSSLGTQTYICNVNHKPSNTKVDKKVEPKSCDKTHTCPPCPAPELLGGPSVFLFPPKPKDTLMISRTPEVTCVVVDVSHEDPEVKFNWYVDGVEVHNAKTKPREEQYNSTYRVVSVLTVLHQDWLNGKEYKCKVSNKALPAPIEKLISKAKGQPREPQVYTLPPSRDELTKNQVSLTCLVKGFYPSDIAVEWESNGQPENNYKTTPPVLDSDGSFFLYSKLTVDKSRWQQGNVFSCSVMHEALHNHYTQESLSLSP
# light: B1 light
# notes: as for B7
# B13: GpH7-B3 variant T335_09D/GpL16-k0 (Ho Ab) (antibody, human IgG1, kappa)
# heavy: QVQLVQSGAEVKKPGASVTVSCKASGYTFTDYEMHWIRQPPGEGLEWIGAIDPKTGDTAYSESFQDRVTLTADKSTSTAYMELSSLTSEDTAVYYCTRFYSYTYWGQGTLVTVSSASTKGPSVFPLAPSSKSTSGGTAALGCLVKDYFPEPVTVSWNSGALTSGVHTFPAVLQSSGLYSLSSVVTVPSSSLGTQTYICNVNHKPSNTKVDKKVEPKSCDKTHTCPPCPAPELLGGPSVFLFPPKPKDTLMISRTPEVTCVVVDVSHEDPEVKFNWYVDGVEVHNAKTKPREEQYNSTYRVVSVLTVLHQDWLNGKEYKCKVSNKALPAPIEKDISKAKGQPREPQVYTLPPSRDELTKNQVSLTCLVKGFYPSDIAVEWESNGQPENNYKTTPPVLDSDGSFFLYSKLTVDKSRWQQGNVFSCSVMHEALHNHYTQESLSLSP
# light: B1 light
# notes: as for B7
# B14: GpH7-B3 variant S337_01G/GpL16-k0 (Ho Ab) (antibody, human IgG1, kappa)
# heavy: not shown
# light: B1 light
# notes: as for B7
# B15: GpH7-B3 variant S324_14T/GpL16-k0 (Ho Ab) (antibody, human IgG1, kappa)
# heavy: not shown
# light: B1 light
# notes: as for B7
# B16: GpH7-B3 variant S239_18N/GpL16-k0 (Ho Ab) (antibody, human IgG1, kappa)
# heavy: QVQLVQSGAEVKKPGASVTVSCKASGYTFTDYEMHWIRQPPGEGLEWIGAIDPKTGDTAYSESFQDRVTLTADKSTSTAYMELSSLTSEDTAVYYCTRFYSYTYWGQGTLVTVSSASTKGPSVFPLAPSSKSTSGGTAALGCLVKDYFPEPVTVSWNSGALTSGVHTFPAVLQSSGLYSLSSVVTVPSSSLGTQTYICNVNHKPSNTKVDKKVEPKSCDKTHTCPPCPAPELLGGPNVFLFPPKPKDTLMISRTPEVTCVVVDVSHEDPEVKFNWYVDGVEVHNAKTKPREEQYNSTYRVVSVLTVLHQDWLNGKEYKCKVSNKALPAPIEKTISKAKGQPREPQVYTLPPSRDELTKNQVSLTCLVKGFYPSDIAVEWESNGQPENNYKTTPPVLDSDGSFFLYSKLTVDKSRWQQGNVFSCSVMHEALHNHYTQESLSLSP
# light: B1 light
# notes: as for B7
# B17: GpH7-B3 variant S324_06M/GpL16-k0 (Ho Ab) (antibody, human IgG1, kappa)
# heavy: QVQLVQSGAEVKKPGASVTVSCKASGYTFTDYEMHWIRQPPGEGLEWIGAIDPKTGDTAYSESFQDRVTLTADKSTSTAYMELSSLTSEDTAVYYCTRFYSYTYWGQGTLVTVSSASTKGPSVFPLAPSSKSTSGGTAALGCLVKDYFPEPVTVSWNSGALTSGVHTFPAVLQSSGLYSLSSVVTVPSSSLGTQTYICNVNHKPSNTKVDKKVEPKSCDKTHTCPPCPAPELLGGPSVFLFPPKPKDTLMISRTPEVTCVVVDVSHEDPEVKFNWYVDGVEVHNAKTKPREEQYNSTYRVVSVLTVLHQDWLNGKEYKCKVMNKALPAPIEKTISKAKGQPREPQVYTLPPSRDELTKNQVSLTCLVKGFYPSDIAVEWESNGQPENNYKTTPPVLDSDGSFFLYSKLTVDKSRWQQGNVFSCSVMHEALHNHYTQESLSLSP
# light: B1 light
# notes: as for B7
# B18: GpH7-B3 variant T335_05P/GpL16-k0 (Ho Ab) (antibody, human IgG1, kappa)
# heavy: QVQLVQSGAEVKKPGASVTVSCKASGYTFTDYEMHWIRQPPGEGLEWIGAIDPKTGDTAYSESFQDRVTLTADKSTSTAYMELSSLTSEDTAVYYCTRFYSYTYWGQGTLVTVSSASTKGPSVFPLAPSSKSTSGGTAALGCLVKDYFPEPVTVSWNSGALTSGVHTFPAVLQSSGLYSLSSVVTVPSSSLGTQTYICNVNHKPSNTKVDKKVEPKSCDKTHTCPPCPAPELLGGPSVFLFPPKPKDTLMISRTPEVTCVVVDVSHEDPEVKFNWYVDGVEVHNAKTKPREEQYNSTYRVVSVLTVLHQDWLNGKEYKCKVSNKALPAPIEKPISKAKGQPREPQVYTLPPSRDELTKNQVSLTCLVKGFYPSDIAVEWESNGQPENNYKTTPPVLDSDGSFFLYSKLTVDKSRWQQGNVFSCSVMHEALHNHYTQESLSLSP
# light: B1 light
# notes: as for B7
# B19: GpH7-B3 variant S298_03V/GpL16-k0 (Ho Ab) (antibody, human IgG1, kappa)
# heavy: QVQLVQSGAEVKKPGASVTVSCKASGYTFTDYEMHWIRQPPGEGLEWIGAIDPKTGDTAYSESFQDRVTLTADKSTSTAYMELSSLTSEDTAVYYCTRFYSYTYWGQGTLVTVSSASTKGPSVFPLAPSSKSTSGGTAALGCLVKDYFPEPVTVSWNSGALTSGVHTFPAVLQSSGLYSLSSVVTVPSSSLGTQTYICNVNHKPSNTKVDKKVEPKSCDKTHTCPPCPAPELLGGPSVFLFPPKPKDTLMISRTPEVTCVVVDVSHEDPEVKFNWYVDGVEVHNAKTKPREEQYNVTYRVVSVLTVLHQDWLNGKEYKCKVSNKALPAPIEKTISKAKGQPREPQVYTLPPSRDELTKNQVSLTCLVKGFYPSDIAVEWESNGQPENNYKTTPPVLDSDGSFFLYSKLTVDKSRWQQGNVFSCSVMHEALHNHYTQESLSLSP
# light: B1 light
# notes: as for B7
# B20: GpH7-B3 variant T335_06M/GpL16-k0 (Ho Ab) (antibody, human IgG1, kappa)
# heavy: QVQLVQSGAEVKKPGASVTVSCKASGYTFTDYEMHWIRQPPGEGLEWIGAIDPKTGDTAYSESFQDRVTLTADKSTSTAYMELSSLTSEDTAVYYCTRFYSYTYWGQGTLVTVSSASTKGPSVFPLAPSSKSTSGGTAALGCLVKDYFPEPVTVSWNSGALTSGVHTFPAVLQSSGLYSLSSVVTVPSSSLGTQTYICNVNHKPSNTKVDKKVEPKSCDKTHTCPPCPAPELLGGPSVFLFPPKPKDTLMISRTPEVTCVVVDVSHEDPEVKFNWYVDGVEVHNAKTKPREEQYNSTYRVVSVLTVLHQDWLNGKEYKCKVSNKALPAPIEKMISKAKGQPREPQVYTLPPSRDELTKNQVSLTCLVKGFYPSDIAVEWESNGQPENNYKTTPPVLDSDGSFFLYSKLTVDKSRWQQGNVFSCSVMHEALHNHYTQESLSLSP
# light: B1 light
# notes: as for B7
# Target: T1, FcγRIIb extracellular domain with …
# Experiment: SPR (Biacore), antibody captured on antigen-peptide chip, FcγR as analyte; relative binding amount
# Method: (§1) The heterodimerized antibodies He Abs in which one of the H chains was introduced with an alteration were assayed for their binding activities to each activating FcγR and inhibitory FcγR according to the method described in Example 4. […] The activating FcγRs in FIGS. 26, 27, 28, and 29 are FcγRIa, FcγRIIa (R), FcγRIIa (H), and FcγRIIIa, respectively.
# (§2) Analysis of interaction between objective antibody and the FcγR was carried out using Biacore T100 (GE Healthcare). HBS-EP+ (GE Healthcare) was used as the running buffer, and the measurement temperature was set to 25° C. Chips produced by immobilizing the antigen peptide by the amine coupling method to a Series S Sencor Chip CM5 (GE Healthcare), or alternatively, chips produced by allowing preliminarily biotinylated antigen peptides to interact with and immobilize onto a Series S Sensor Chip SA (certified) (GE Healthcare) were used. Antibodies of interest were captured onto an antigen peptide-immobilized chip, and allowed to interact to each FcγR diluted with running buffer. To regenerate and repeatedly use the chip, the antibodies captured on the chip were washed off by reacting 10 mM glycine-HCl, pH 1.5.
row,He/Con_2b (IIb binding),Binder
1,"84.9 relative, GpH7-A5/GpH7-B3/GpL16-k0 = 100",B1
2,"89.5 relative, GpH7-A5/GpH7-B3/GpL16-k0 = 100",B2
3,"89.8 relative, GpH7-A5/GpH7-B3/GpL16-k0 = 100",B3
4,"68.2 relative, GpH7-A5/GpH7-B3/GpL16-k0 = 100",B4
5,"83.7 relative, GpH7-A5/GpH7-B3/GpL16-k0 = 100",B5
6,"90.3 relative, GpH7-A5/GpH7-B3/GpL16-k0 = 100",B6

# Target: T2, FcγRIIIa extracellular domain with C-terminal His tag (human, UniProt P08637 17-208)
# T2 construct: extracellular domain; also called FcgRIIIa; 3a; not shown: His tag at the C terminus
# T2 sequence (P08637 17-208): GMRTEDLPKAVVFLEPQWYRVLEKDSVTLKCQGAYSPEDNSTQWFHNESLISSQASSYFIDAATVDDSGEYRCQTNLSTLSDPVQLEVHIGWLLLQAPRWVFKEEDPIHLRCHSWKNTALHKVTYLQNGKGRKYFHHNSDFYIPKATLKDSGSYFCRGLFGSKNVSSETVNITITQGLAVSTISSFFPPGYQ
# Experiment: as above
# Method: as §1, §2
row,He/Con_3a (IIIa binding),Binder
1,"111 relative, GpH7-A5/GpH7-B3/GpL16-k0 = 100",B1
2,"108 relative, GpH7-A5/GpH7-B3/GpL16-k0 = 100",B2
3,"119 relative, GpH7-A5/GpH7-B3/GpL16-k0 = 100",B3
4,"87.3 relative, GpH7-A5/GpH7-B3/GpL16-k0 = 100",B4
5,"102 relative, GpH7-A5/GpH7-B3/GpL16-k0 = 100",B5
6,"112 relative, GpH7-A5/GpH7-B3/GpL16-k0 = 100",B6

# Target: T3, FcγRIIIa (human, UniProt P08637 17-208)
# T3 construct: extracellular domain; also called 3a; FcgRIIIa
# T3 sequence (P08637 17-208): as above
# Experiment: SPR (Biacore), antibody captured on antigen-peptide chip, FcγR as analyte; binding of Ho Ab / binding of HoCon Ab GpH7-B3/GpL16-k0 x 100
# Method: as §2
row,Ho/Con_3a,Binder
1,119 relative to control = 100,B7
2,146 relative to control = 100,B8
3,112 relative to control = 100,B9
4,105 relative to control = 100,B10
5,101 relative to control = 100,B11
6,103 relative to control = 100,B12
7,114 relative to control = 100,B13
8,108 relative to control = 100,B14
9,108 relative to control = 100,B15
10,116 relative to control = 100,B16
11,114 relative to control = 100,B17
12,119 relative to control = 100,B18
13,110 relative to control = 100,B19
14,107 relative to control = 100,B20

# Target: T2, FcγRIIIa extracellular domain with …
# Experiment: SPR (Biacore); He/Con for FcγRIIIa divided by He/Con for FcγRIIb
# Method: as §1, §2
row,He_3a/2b (IIIa/IIb) [ratio],Binder
1,1.31,B1
2,1.21,B2
3,1.33,B3
4,1.28,B4
5,1.21,B5
6,1.24,B6

# — patent US20150344570A1 (published 2015)
